In patent US20050202403A1:
Where “and” joins values, the source holds several entries; their conditions need not be identical. Equal values may be shown once.

These substances were tested against human adenosine A2a receptor (human) (UniProt P29274) (assay: cell-based or functional assay).
human adenosine A2a receptor (human), sequence (P29274 whole entry): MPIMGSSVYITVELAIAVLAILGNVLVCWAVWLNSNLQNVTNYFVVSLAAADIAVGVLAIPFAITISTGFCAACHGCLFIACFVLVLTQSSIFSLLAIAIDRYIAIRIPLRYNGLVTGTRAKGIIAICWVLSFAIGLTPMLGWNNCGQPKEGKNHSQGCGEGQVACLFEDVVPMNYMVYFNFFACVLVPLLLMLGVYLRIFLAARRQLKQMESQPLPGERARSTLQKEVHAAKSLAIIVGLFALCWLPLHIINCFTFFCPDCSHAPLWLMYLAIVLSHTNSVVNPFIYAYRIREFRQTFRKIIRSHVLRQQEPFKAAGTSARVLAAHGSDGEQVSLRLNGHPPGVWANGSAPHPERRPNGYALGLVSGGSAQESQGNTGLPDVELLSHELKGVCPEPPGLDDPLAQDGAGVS

GPA1-Gα12 S288P chimera (Cp3822), sequence (P08539 1-41, stated change not applied): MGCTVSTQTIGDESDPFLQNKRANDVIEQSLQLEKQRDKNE
GPA1-Gα12 chimera (Cp3435), sequence (P08539 1-41, change not shown): as the sequence (P08539 1-41, stated change not applied) above
rat Gαs, wild type (Cp3098), sequence (P63095 2-394): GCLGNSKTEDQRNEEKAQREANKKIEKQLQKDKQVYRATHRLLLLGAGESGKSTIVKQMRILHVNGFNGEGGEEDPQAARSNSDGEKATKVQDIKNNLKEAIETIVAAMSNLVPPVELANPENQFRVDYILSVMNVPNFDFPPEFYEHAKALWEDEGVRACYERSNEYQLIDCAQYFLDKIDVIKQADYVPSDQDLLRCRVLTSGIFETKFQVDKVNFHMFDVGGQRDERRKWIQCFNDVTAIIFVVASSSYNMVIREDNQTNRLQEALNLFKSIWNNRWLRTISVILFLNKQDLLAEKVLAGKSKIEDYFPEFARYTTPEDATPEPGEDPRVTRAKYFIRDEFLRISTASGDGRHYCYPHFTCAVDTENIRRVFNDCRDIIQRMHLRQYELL
Gpal(1-43)-Gαi2(36-242)-GαoB(243-354) S280P chimera (Cp3635), sequence (P08539 1-43, stated change not applied): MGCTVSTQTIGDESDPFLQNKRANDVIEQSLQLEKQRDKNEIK
GPA1(20)-Gα16(S-P), sequence (P08539 1-20): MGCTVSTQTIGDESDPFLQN
GPA1(41)-Gαi2-Gαo(40), sequence (P08539 1-41): as the sequence (P08539 1-41, stated change not applied) above
GPA1(41)-Gαi1, sequence (P08539 1-41): as the sequence (P08539 1-41, stated change not applied) above

fusl-lacZ reporter, β-galactosidase units on addition of NECA [fold] | Substance
10 | rat Gαs D229S (Cp3390) (from UniProt P63095 2-394)
10 | rat Gαs E10K (from UniProt P63095 2-394)
10 | rat Gαs E10K D229S double mutant (from UniProt P63095 2-394)
10 | rat Gαs N254D (from UniProt P63095 2-394)
10 | rat Gαs S286P (from UniProt P63095 2-394)

The substances below were run against yeast Gβγ (STE4/STE18) (Saccharomyces cerevisiae) (UniProt P18851) (assay: cell-based or functional assay).
yeast Gβγ (STE4/STE18) (Saccharomyces cerevisiae), sequence (P18851 whole entry, chain 1 of 2): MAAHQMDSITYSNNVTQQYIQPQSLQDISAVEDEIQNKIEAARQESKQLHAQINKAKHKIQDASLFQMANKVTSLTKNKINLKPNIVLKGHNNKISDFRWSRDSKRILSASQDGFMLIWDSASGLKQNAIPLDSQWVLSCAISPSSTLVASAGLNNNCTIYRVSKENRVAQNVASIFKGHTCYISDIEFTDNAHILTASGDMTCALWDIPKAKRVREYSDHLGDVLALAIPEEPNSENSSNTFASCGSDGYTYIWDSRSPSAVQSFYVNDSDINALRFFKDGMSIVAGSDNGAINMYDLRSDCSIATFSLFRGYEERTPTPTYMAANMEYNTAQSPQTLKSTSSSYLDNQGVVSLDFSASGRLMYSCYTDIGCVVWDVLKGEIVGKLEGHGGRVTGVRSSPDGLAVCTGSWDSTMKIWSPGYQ
yeast Gβγ (STE4/STE18) (Saccharomyces cerevisiae), sequence (P18852 1-107, chain 2 of 2, further chain): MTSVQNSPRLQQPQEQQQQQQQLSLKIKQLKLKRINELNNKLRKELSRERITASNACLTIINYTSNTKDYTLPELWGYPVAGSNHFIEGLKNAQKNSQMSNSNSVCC

min[AT]i [mM] | growth of gpa1 fus1-HIS3 yeast on aminotriazole | growth of the gpal fusl-HIS3 strain on 3-AT [mM] | growth of a gpal fusl-HIS3 colony on media lacking histidine with 3-AT [mM] | Substance
1 | – | – | – | GPA1(20)-Gα16 (from UniProt P08539 1-20)
0.5 | – | – | – | GPA1(41)-Gαi1 (from UniProt P08539 1-41)
1 | – | – | – | GPA1(41)-Gαi2-Gαo(40) (from UniProt P08539 1-41)
0.5 | – | – | – | GPA1(41)-Gαi3 (from UniProt P08539 1-41; P08754 36-354)
1 | 0.5 mM | – | – | GPA1-Gα12 S288P chimera (Cp3822) (from UniProt P08539 1-41)
– | 2.5 mM and 1 mM | – | – | GPA1-Gα12 chimera (Cp3435) (from UniProt P08539 1-41)
1 | – | – | – | Gpal(1-43)-Gα16(45-374) S270P chimera (Cp3699) (from UniProt P08539 1-43; P30679 45-374)
1.5 | – | – | – | Gαi1
– | – | 0.2 | – | rat Gαs E10K (from UniProt P63095 2-394)

Second part, the substance before the results:

Substance | min[AT]i [mM] | growth of gpa1 fus1-HIS3 yeast on aminotriazole | growth of the gpal fusl-HIS3 strain on 3-AT [mM] | growth of a gpal fusl-HIS3 colony on media lacking histidine with 3-AT [mM]
GPA1(20)-Gα16(S-P) (from UniProt P08539 1-20) | 0.5 | – | – | –
GPA1(41)-Gαi2 (from UniProt P08539 1-41; P04899 36-355) | 0.5 | – | – | –
Gpal(1-43)-Gαi2(36-242)-GαoB(243-354) S280P chimera (Cp3635) (from UniProt P08539 1-43) | 1 | – | – | –
rat Gαs D229V (from UniProt P63095 2-394) | – | – | 0.2 | –
rat Gαs N254D (from UniProt P63095 2-394) | – | – | 0.2 | –
rat Gαs S286P (from UniProt P63095 2-394) | – | – | 0.2 | –
rat Gαs, wild type (Cp3098) (from UniProt P63095 2-394) | – | – | – | 1
